This assay deals with FcRn. Kind of assay: BIAcore at pH 6.0. (In general: In SPR one partner is held on a chip, and binding of the other changes the refractive index at the surface.)

The Kd is the equilibrium constant for the complex coming apart. wild-type irrelevant IgG1 (antibody): the Kd turned out to be 1640 nM.

In the case of wild-type irrelevant IgG4 (antibody), the Kd came to 3640 nM. Compared with the last substance, the Kd is about 2.2-fold higher.

The record behind these values is US20230183339A1.
